System: Escherichia coli TOP10
Assay: shrunken log2 fold change of peptide-encoding DNA abundance (4.5 h post-induction vs induction); higher = less antimicrobial activity (less host growth inhibition)
Conditions: time post-induction: 4.5 h; library: site-saturation at positions 5, 18, 19, 20
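Further: peptides expressed intracellularly from a pBAD plasmid library in pooled LB shake-flask culture, induced with 0.3% L-arabinose, DNA abundance read by NGS, three biological replicates, DESeq2 with apeglm shrinkage.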

Row | Sequence | shrunken log2 fold change
1 | RRIRPRPPRLPRPRPRPYFHPRP | -0.522
2 | RRIRQRPPRLPRPRPRPYLWPRP | -0.0736
3 | RRIRMRPPRLPRPRPRPRKPPRP | 0.915
4 | RRIRWRPPRLPRPRPRPMIRPRP | -0.348
5 | RRIRERPPRLPRPRPRPDETPRP | -0.015
6 | RRIRTRPPRLPRPRPRPPQCPRP | 0.0145
7 | RRIRKRPPRLPRPRPRPACNPRP | -0.0224
8 | RRIRNRPPRLPRPRPRPLFTPRP | -0.0916
9 | RRIRNRPPRLPRPRPRPTSLPRP | -0.0597
10 | RRIRERPPRLPRPRPRPPEYPRP | -0.0278
11 | RRIRWRPPRLPRPRPRPLDFPRP | 0.0518
12 | RRIRFRPPRLPRPRPRPWGEPRP | 0.0156
13 | RRIRTRPPRLPRPRPRPKYTPRP | -0.508
14 | RRIRDRPPRLPRPRPRPCVSPRP | 0.0278
15 | RRIRTRPPRLPRPRPRPINEPRP | -0.405
16 | RRIRNRPPRLPRPRPRPCQHPRP | -0.0585
17 | RRIRYRPPRLPRPRPRPPETPRP | -0.0226
18 | RRIRWRPPRLPRPRPRPMCCPRP | 0.181
19 | RRIRGRPPRLPRPRPRPAINPRP | 0.419
20 | RRIRFRPPRLPRPRPRPPFFPRP | 0.243
21 | RRIRVRPPRLPRPRPRPKANPRP | 0.103
22 | RRIRYRPPRLPRPRPRPRRNPRP | -0.268
23 | RRIRWRPPRLPRPRPRPFGGPRP | 0.0764
24 | RRIRMRPPRLPRPRPRPDKRPRP | 0.076
25 | RRIRMRPPRLPRPRPRPYHTPRP | -1.11

Row | Sequence | shrunken log2 fold change
26 | RRIRLRPPRLPRPRPRPGRNPRP | -0.0488
27 | RRIRYRPPRLPRPRPRPGSNPRP | -0.0401
28 | RRIRVRPPRLPRPRPRPGLQPRP | 0.478
29 | RRIRHRPPRLPRPRPRPWTFPRP | -0.229
30 | RRIRIRPPRLPRPRPRPFYPPRP | -0.776
31 | RRIRVRPPRLPRPRPRPKLQPRP | 0.32
32 | RRIRPRPPRLPRPRPRPWMAPRP | -0.113
33 | RRIRARPPRLPRPRPRPQFNPRP | -0.0606
34 | RRIRPRPPRLPRPRPRPTAAPRP | 0.227
35 | RRIRVRPPRLPRPRPRPTKFPRP | -0.248
36 | RRIRLRPPRLPRPRPRPEYSPRP | -0.279
37 | RRIRVRPPRLPRPRPRPTLTPRP | -0.0107
38 | RRIRPRPPRLPRPRPRPPLYPRP | 0.217
39 | RRIRGRPPRLPRPRPRPLWNPRP | 0.116
40 | RRIRRRPPRLPRPRPRPKQTPRP | 0.186
41 | RRIRIRPPRLPRPRPRPLVNPRP | -0.814
42 | RRIRPRPPRLPRPRPRPSRGPRP | 0.839
43 | RRIRLRPPRLPRPRPRPVNSPRP | 0.1
44 | RRIRLRPPRLPRPRPRPAAIPRP | -0.0299
45 | RRIRMRPPRLPRPRPRPDRDPRP | 0.353
46 | RRIRARPPRLPRPRPRPDEQPRP | 0.0992
47 | RRIRQRPPRLPRPRPRPWPWPRP | 0.0839
48 | RRIRPRPPRLPRPRPRPQFAPRP | 0.218
49 | RRIRTRPPRLPRPRPRPQWIPRP | -0.809
50 | RRIRGRPPRLPRPRPRPLWYPRP | 0.298

Row | Sequence | shrunken log2 fold change
51 | RRIRDRPPRLPRPRPRPAKHPRP | 0.0985
52 | RRIRSRPPRLPRPRPRPCDVPRP | -0.0124
53 | RRIRKRPPRLPRPRPRPNVPPRP | 0.11
54 | RRIRKRPPRLPRPRPRPGTWPRP | 0.315
55 | RRIRQRPPRLPRPRPRPMFSPRP | 0.0442
56 | RRIRRRPPRLPRPRPRPVDIPRP | -0.0798
57 | RRIRCRPPRLPRPRPRPNTMPRP | -0.682
58 | RRIRSRPPRLPRPRPRPTAMPRP | 0.4
59 | RRIRRRPPRLPRPRPRPNCGPRP | 0.315
60 | RRIRWRPPRLPRPRPRPFQSPRP | -0.0153
61 | RRIRSRPPRLPRPRPRPDTCPRP | -0.225
62 | RRIRRRPPRLPRPRPRPDWIPRP | -0.223
63 | RRIRCRPPRLPRPRPRPFMMPRP | -0.266
64 | RRIRNRPPRLPRPRPRPFFPPRP | -0.122
65 | RRIRARPPRLPRPRPRPFSTPRP | -0.572
66 | RRIRYRPPRLPRPRPRPCYIPRP | -0.189
67 | RRIRHRPPRLPRPRPRPNIPPRP | -0.234
68 | RRIRSRPPRLPRPRPRPICKPRP | -0.494
69 | RRIRWRPPRLPRPRPRPITEPRP | -0.355
70 | RRIRMRPPRLPRPRPRPCTDPRP | -0.132
71 | RRIRTRPPRLPRPRPRPVNEPRP | -0.103
72 | RRIRDRPPRLPRPRPRPYRIPRP | 0.0295
73 | RRIRMRPPRLPRPRPRPHPAPRP | 0.903
74 | RRIRCRPPRLPRPRPRPWKCPRP | -0.0193
75 | RRIRERPPRLPRPRPRPNPSPRP | -0.162

Row | Sequence | shrunken log2 fold change
76 | RRIRRRPPRLPRPRPRPNDAPRP | -0.0546
77 | RRIRDRPPRLPRPRPRPFVTPRP | -0.0344
78 | RRIRIRPPRLPRPRPRPSKKPRP | -0.229
79 | RRIRVRPPRLPRPRPRPKCNPRP | -0.181
80 | RRIRERPPRLPRPRPRPMVCPRP | -0.0478
81 | RRIRYRPPRLPRPRPRPMKKPRP | 0.0048
82 | RRIRYRPPRLPRPRPRPSVCPRP | -0.769
83 | RRIRHRPPRLPRPRPRPVDFPRP | 0.0522
84 | RRIRMRPPRLPRPRPRPMKLPRP | -0.13
85 | RRIRMRPPRLPRPRPRPYADPRP | 0.419
86 | RRIRPRPPRLPRPRPRPCHAPRP | -0.242
87 | RRIRQRPPRLPRPRPRPFIYPRP | -0.372
88 | RRIRCRPPRLPRPRPRPYVFPRP | -0.362
89 | RRIRIRPPRLPRPRPRPADWPRP | 0.218
90 | RRIRLRPPRLPRPRPRPQGDPRP | -0.0165
91 | RRIRERPPRLPRPRPRPHHHPRP | -0.58
92 | RRIRNRPPRLPRPRPRPVAPPRP | 0.153
93 | RRIRIRPPRLPRPRPRPTIFPRP | -0.398
94 | RRIRCRPPRLPRPRPRPIVYPRP | -0.788
95 | RRIRTRPPRLPRPRPRPTNSPRP | -0.334
96 | RRIRVRPPRLPRPRPRPTIQPRP | -0.526
97 | RRIRWRPPRLPRPRPRPHPNPRP | -0.0793
98 | RRIRKRPPRLPRPRPRPPLHPRP | 0.694
99 | RRIRYRPPRLPRPRPRPNVFPRP | 0.0662
100 | RRIRQRPPRLPRPRPRPMRLPRP | 0.0296

Row | Sequence | shrunken log2 fold change
101 | RRIRARPPRLPRPRPRPLDRPRP | -0.233
102 | RRIRHRPPRLPRPRPRPAHSPRP | 0.0457
103 | RRIRHRPPRLPRPRPRPGSCPRP | -0.108
104 | RRIRWRPPRLPRPRPRPEPPPRP | 0.977
105 | RRIRQRPPRLPRPRPRPQFCPRP | -0.142
106 | RRIRMRPPRLPRPRPRPKEHPRP | 0.617
107 | RRIRQRPPRLPRPRPRPLEPPRP | -0.227
108 | RRIRTRPPRLPRPRPRPWTVPRP | -0.0107
109 | RRIRTRPPRLPRPRPRPGNKPRP | -0.0505
110 | RRIRKRPPRLPRPRPRPACKPRP | 0.0609
111 | RRIRWRPPRLPRPRPRPNDVPRP | -0.0909
112 | RRIRARPPRLPRPRPRPSTSPRP | -0.322
113 | RRIRTRPPRLPRPRPRPYQRPRP | -0.0311
114 | RRIRLRPPRLPRPRPRPNDNPRP | -0.557
115 | RRIRKRPPRLPRPRPRPPGCPRP | 0.955
116 | RRIRNRPPRLPRPRPRPMIQPRP | -0.715
117 | RRIRCRPPRLPRPRPRPRDWPRP | 0.591
118 | RRIRPRPPRLPRPRPRPKWEPRP | -0.0741
119 | RRIRPRPPRLPRPRPRPYPRPRP | 0.0824
120 | RRIRERPPRLPRPRPRPKWRPRP | -0.102
121 | RRIRERPPRLPRPRPRPNEDPRP | -0.151
122 | RRIRYRPPRLPRPRPRPLNAPRP | -0.859
123 | RRIRCRPPRLPRPRPRPMTSPRP | -0.0603
124 | RRIRERPPRLPRPRPRPKLPPRP | 0.0983
125 | RRIRQRPPRLPRPRPRPSKNPRP | 0.0658

— the supplement of paper PMC9112550, “Optimization of the antimicrobial peptide Bac7 by deep mutational scanning” (BMC Biology, 2022)
